Data reported in publication doi:10.1101/2023.11.08.566258.

Target: Prominin-1 (Prom1) W795R, C-terminally Strep-tagged (human)
Assay: co-IP; EVs from cells co-transfected with Strep-tagged and mScarlet-tagged Prom1, solubilized with 1% DDM; Strep resin; co-purified Prom1-mScarlet measured by fluorescence imaging of the resin beads (CY3 filter set); control with Prom1-mScarlet alone

co-purified mScarlet fluorescence, percent of WT Prom1: 60%
Substance: Prominin-1 (Prom1) W795R, C-terminally Strep-tagged (natural protein)
